The numbers were not newly measured in PMC6611588, “Quantitative high-throughput screening assays for the discovery and development of SIRPα-CD47 interaction inhibitors” (PLoS ONE, 2019), which cites them from elsewhere.

In general, Kd refers to a measure of binding affinity in units of concentration.

The target of the data set is CD47 (Homo sapiens) (UniProt Q08722). The following applies: cited from earlier work.

Several values for one entry are separate records, joined by “and”; a condition that tells them apart may be missing. Equal values may be shown once.

Sequence of CD47 (Homo sapiens) (Q08722 19-323): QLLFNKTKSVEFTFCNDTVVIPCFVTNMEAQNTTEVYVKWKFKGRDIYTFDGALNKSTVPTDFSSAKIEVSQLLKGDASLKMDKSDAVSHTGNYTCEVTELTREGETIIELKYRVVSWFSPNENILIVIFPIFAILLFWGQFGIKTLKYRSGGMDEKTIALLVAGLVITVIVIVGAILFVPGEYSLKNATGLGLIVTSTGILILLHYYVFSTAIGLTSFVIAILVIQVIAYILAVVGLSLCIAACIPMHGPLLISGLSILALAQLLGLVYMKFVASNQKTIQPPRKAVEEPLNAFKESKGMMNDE
Sequence of SIRPα (P78324 31-373): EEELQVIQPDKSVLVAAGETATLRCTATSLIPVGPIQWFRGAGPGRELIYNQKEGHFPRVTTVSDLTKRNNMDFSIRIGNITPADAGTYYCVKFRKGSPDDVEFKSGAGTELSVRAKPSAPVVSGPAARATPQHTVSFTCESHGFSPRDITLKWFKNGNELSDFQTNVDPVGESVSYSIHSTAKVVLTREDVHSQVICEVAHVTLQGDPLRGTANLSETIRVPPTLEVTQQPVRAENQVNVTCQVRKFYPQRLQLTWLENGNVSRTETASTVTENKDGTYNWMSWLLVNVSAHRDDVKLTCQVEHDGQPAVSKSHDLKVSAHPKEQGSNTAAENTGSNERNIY

Consider SIRPα (from UniProt P78324), for which the Kd was 300 nM and 279 nM.
